B1: wild-type GluK5 (receptor)
chain: NPSCQVLSSLRMAAILDDQTVCGRGERLALALAREQINGIIEVPAKARVEVDIFELQRDSQYETTDTMCQILPKGVVSVLGPSSSPASASTVSHICGEKEIPHIKVGPEETPRLQYLRFASVSLYPSNEDVSLAVSRILKSFNYPSASLICAKAECLLRLEELVRGFLISKETLSVRMLDDSRDPTPLLKEIRDDKVSTIIIDANASISHLVLRKASELGMTSAFYKYILTTMDFPILHLDGIVEDSSNILGFSMFNTSHPFYPEFVRSLNMSWRENCEASTYPGPALSAALMFDAVHVVVSAVRELNRSQEIGVKPLACTSANIWPHGTSLMNYLRMVEYDGLTGRVEFNSKGQRTNYTLRILEKSRQGHREIGVWYSNRTLAMNATTLDINLSQTLANKTLVVTTILENPYVMRRPNFQALSGNERFEGFCVDMLRELAELLRFRYRLRLVEDGLYGAPEPNGSWTGMVGELINRKADLAVAAFTITAEREKVIDFSKPFMTLGISILYRVHMGRKPGYFSFLDPFSPAVWLFMLLAYLAVSCVLFLAARLSPYEWYNPHPCLRARPHILENQYTLGNSLWFPVGGFMQQGSEIMPRALSTRCVSGVWWAFTLIIISSYTANLAAFLTVQRMEVPVESADDLADQTNIEYGTIHAGSTMTFFQNSRYQTYQRMWNYMQSKQPSVFVKSTEEGIARVLNSRYAFLLESTMNEYHRRLNCNLTQIGGLLDTKGYGIGMPLGSPFRDEITLAILQLQENNRLEILKRKWWEGGRCPKEEDHRAKGLGMENIGGIFVVLICGLIIAVFVAVMEFIWSTRRSAESEEVSVCQEMLQELRHAVSCRKTSRSRRRRRPGGPSRALLSLRAVREMRLSNGKLYSAGAGGDAGAHGGPQRLLDDPGPPGGPRPQAPTPCTHVRVCQECRRIQALRASGAGAPPRGLGTPAEATSPPRPRPGPTGPRELTEHE
B2: GluK5em (rat GluK5 cryo-EM expression construct) (receptor)
chain: NPSCQVLSSLRMAAILDDQTVCGRGERLALALAREQINGIIEVPAKARVEVDIFELQRDSQYETTDTMCQILPKGVVSVLGPSSSPASASTVSHICGEKEIPHIKVGPEETPRLQYLRFASVSLYPSNEDVSLAVSRILKSFNYPSASLICAKAECLLRLEELVRGFLISKETLSVRMLDDSRDPTPLLKEIRDDKVSTIIIDANASISHLVLRKASELGMTSAFYKYILTTMDFPILHLDGIVEDSSNILGFSMFNTSHPFYPEFVRSLNMSWRENCEASTYPGPALSAALMFDAVHVVVSAVRELNRSQEIGVKPLACTSANIWPHGTSLMNYLRMVEYDGLTGRVEFNSKGQRTNYTLRILEKSRQGHREIGVWYSNRTLAMNATTLDINLSQTLANKTLVVTTILENPYVMRRPNFQALSGNERFEGFCVDMLRELAELLRFRYRLRLVEDGLYGAPEPNGSWTGMVGELINRKADLAVAAFTITAEREKVIDFSKPFMTLGISILYRVHMGRKPGYFSFLDPFSPAVWLFMLLAYLAVSVVLFLAARLSPYEWYNPHPSLRARPHILENQYTLGNSLWFPVGGFMQQGSEIMPRALSTRIVSGVWWAFTLIIISSYTANLAAFLTVQRMEVPVESADDLADQTNIEYGTIHAGSTMTFFQNSRYQTYQRMWNYMQSKQPSVFVKSTEEGIARVLNSRYAFLLESTMNEYHRRLNCNLTQIGGLLDTKGYGIGMPLGSPFRDEITLAILQLQENNRLEILKRKWWEGGRCPKEEDHRAKGLGMENIGGIFVVLIAGLIIAVFVAVMEFIYKSRAEAKRMK
modifications: N-linked glycans at N219, N271, N322, N372, N394
notes: signal peptide in the construct; rat GluK5 (GRIK5_RAT), from the full-length gene, truncated at position 827 after the M4 helix, four cysteines mutated; GluA2 'tail' ('A2 tail') added at the subunit C-terminus in place of the GluK5 C-terminus; GluK5 with point mutations and its C-terminus replaced by the GluA2 tail; Two copies stand in the GluK2/K5em tetramer (A/C positions); No thrombin cleavage …
B3: GluK2em (rat GluK2 cryo-EM expression construct) (receptor, UniProt P42260 32-908, looked up)
chain: TTHVLRFGGIFEYVESGPMGAEELAFRFAVNTINRNRTLLPNTTLTYDTQKINLYDSFEASKKACDQLSLGVAAIFGPSHSSSANAVQSICNALGVPHIQTRWKHQVSDNKDSFYVSLYPDFSSLSRAILDLVQFFKWKTVTVVYDDSTGLIRLQELIKAPSRYNLRLKIRQLPADTKDAKPLLKEMKRGKEFHVIFDCSHEMAAGILKQALAMGMMTEYYHYIFTTLDLFALDVEPYRYSGVNMTGFRILNTENTQVSSIIEKWSMERLQAPPKPDSGLLDGFMTTDAALMYDAVHVVSVAVQQFPQMTVSSLQCNRHKPWRFGTRFMSLIKEAHWEGLTGRITFNKTNGLRTDFDLDVISLKEEGLEKIGTWDPASGLNMTESQKGKPANITDSLSNRSLIVTTILEEPYVLFKKSDKPLYGNDRFEGYCIDLLRELSTILGFTYEIRLVEDGKYGAQDDVNGQWNGMVRELIDHKADLAVAPLAITYVREKVIDFSKPFMTLGISILYRKPNGTNPGVFSFLNPLSPDIWMYVLLAYLGVSVVLFVIARFSPYEWYNPHPSNPDSDVVENNFTLLNSFWFGVGALMQQGSELMPKALSTRIVGGIWWFFTLIIISSYTANLAAFLTVERMESPIDSADDLAKQTKIEYGAVEDGATMTFFKKSKISTYDKMWAFMSSRRQSVLVKSNEEGIQRVLTSDYAFLMESTTIEFVTQRNCNLTQIGGLIDSKGYGVGTPMGSPYRDKITIAILQLQEEGKLHMMKEKWWRGNGCPEEESKEASALGVQNIGGIFIVLAAGLVLSVFVAVGEFLYKSKKNAQLEKRSFCSAMVEELRMSLKCQRRLKHKPQAPVIVKTEEVINMHTFNDRRLPGKETMA
modifications: N-linked glycans at N67, N378, N412, N546
notes: signal peptide in the construct; rat GluK2 (GRIK2_RAT), full-length gene, RNA-edited at position 567 (I to V), with C576V and C595S; Two copies stand in the GluK2/K5em tetramer (B/D positions); No thrombin cleavage step is told in the purification; also called B/D subunits; source: HEK293S GnTI- cells, BacMam, co-expressed with GluK5em, purified (Strep-Tactin, 1D4 resin, Superose 6); HEK293T, …

Tests used:
wild-type GluK2 (rat) = wild-type GluK2 (rat) (UniProt P42260)
[1] = target: B3; experiment: cryo-EM structure; GluK2/K5em co-expressed and co-purified in DDM/CHS, 3.7 mg/mL, with 1 mM CNQX (antagonist-bound); full-length 5.3 Å, ATD layer 3.6 Å, LBD-TMD 4.2 Å; conditions: both partners purified
[2] = target: the molecule itself; experiment: as above

**Q.** For B1, which deactivation current decay after a 1 ms pulse of 1 mM L-Glu, outside-out patches of HEK293T cells co-transfected with wild-type GluK2 and GluK5; weighted τ (wild-type GluK2 (rat)) is on record?
**A.** The deactivation current decay after a 1 ms pulse of 1 mM L-Glu, outside-out patches of HEK293T cells co-transfected with wild-type GluK2 and GluK5; weighted τ was 23.6 ms.

**Q.** What about the deactivation current decay after a 1 ms pulse of 1 mM L-Glu, outside-out patches of HEK293T cells co-transfected with wild-type GluK2 and GluK5; τ3 (slow component) (wild-type GluK2 (rat)) of the same binder?
**A.** Its deactivation current decay after a 1 ms pulse of 1 mM L-Glu, outside-out patches of HEK293T cells co-transfected with wild-type GluK2 and GluK5; τ3 (slow component) is 60 ms.

**Q.** For B2, which “stoichiometry N” value [1] is on record?
**A.** The value was 1 GluK5 per GluK2 (printed as 2:2).

**Q.** Does B3 bind [2]?
**A.** Result: binds

— PMC7997659, “Architecture and structural dynamics of the heteromeric GluK2/K5 kainate receptor” (eLife, 2021)
